In paper PMC4358337, “How lamina-associated polypeptide 1 (LAP1) activates Torsin” (eLife, 2014):

T1: human TorsinA(E171Q) (aa51-322) (human, UniProt O14656 51-322, E171Q)
T1 construct: human TorsinA, aa51-322 as printed; Captured by its tag on nickel resin; the nickel eluate was used directly for electron microscopy; Whether the tag was removed before the analytical gel filtration and the precipitation assay is not clearly told; not shown: 6xHis-7xArg, N-terminal, kept
T1 sequence (looked up): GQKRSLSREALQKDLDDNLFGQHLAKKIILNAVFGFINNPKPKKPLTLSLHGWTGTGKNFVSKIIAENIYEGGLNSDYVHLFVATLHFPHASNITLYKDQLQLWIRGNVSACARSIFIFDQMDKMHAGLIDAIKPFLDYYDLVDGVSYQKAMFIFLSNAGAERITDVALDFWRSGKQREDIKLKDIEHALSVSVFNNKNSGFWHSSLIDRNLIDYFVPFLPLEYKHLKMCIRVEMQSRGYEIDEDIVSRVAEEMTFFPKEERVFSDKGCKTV

B1: luminal domain of human LULL1 (aa233-470), untagged, co-expressed with TorsinA (domain or fragment)
chain: not shown
notes: luminal domain of human LULL1, aa233-470, untagged; The results once print LULL1(322-570); the methods print aa233-470 throughout; also called LULL1(233-470); Luminal domain-Like LAP1
B2: luminal domain of human LAP1 (aa356-583), untagged, co-expressed with TorsinA (domain or fragment)
chain: not shown
notes: luminal domain of human lamina-associated polypeptide 1 (LAP1), aa356-583, untagged; From a second, kanamycin resistant modified pETDuet-1 vector; also called LAP1(356-583)
B3: VHH-BS1 (VHH)
VHH: QVQLVESGGGLVQAGGSLRLSCAASGRTLSSYAVGWFRQAPGLEREFVATISRSGGSTHYADSVKGRFTISRDNAKNTVYLQMNSLKPEDTAVYYCAATFTPDGSWYYTRGSSYDYWGQGTQVTVSS
notes: alpaca VHH selected by phage display against LAP1; Raised by immunising an alpaca with recombinant LAP1; expressed from pET-28b(+); also called camelid single domain (VHH) antibody fragment against LAP1

Key:
Conditions in all cases: both partners purified
[1] = target: T1, human TorsinA(E171Q) (aa51-322); test: SEC; analytical gel filtration of the co-purified complexes, Superdex 200 10/300, 10 mM HEPES/NaOH pH 8.0, 150 mM NaCl, 10 mM MgCl2, 0.5 mM ATP; peak fractions by SDS-PAGE
[2] = target: T2, luminal domain of human LAP1 (aa356-583), untagged, co-expressed with TorsinA (human, UniProt Q5JTV8); test: in vitro precipitation assay (competition); 100 pmol preformed TorsinA(E171Q):LAP1 complex with 200 pmol VHH, 4°C, 10 mM HEPES/NaOH pH 8.0, 150 mM NaCl, 10 mM MgCl2, 0.25 mM ATP; soluble and insoluble protein separated by centrifugation, SDS-PAGE
T2 construct: luminal domain of human lamina-associated polypeptide 1 (LAP1), aa356-583, untagged; From a second, kanamycin resistant modified pETDuet-1 vector; also called LAP1(356-583)
T2 sequence (Q5JTV8 356-583): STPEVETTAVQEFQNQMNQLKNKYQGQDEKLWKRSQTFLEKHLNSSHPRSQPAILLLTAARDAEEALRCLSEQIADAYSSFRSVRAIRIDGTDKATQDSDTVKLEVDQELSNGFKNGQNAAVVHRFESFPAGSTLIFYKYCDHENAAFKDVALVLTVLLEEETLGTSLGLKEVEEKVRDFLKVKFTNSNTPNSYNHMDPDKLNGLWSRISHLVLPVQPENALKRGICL

[3] = target: T3, luminal domain of human LAP1 (aa356-583) (human, UniProt Q5JTV8); test: crystal structure; LAP1-VHH-BS1 complex formed with twofold molar excess of VHH-BS1, SEC purified; crystals in 20% PEG 3350, 100 mM Bis-Tris pH 5.5, 200 mM ammonium sulfate, 18°C; 1.6 Å
T3 construct: luminal domain of human lamina-associated polypeptide 1 (LAP1), aa356-583; Tag removed with human rhinovirus 3C protease; disulfide bond C424-C582 seen in the structure; also called LAP1(356-583); Lamina-associated polypeptide 1; not shown: 6xHis-7xArg, N-terminal, cleaved
T3 sequence (Q5JTV8 356-583): as above

Binder	stoichiometry N [1]	binding result [2]	binding result [3]
B1	1		
B2	1		
B3		binds	binds
